# Measurements reported in patent publication US20240317834A1, “COMPOSITIONS AND METHODS FOR NEUROLOGICAL DISEASES” (CODA BIOTHERAPEUTICS, INC., priority 2020, published 2024).
# Tested on: Lenti-X 293T cells
# Experiment: YFP fluorescence quenching anion reporter plate reader assay of engineered receptors stimulated with acetylcholine or a non-native ligand
# Format: cell-based
# Conditions: for percent quench of YFP fluorescence, 10 uM ach: acetylcholine 10 uM; for percent quench of YFP fluorescence, 100 uM ach: acetylcholine 100 uM; for percent quench of YFP fluorescence, 1 mM ach: acetylcholine 1 mM; for percent quench of YFP fluorescence, 3 mM ach: acetylcholine 3 mM
# From the text: To screen these mutant LGICs for those having novel response profiles to ligands, an anion reporter assay was developed to assess the function of the LGICs in a high throughput format. In this assay, cells expressing a YFP reporter whose fluorescence is quenched in the presence of anion are transfected with DNA encoding the channel of interest. Upon exposure to ligand, channels that are activated will flux anion, resulting in a dose-dependent quench of the YFP that can be detected on a plate reader. The greater the quench signal (i.e., the more positive the value), the higher the ligand activity on the receptor is.
# Lenti-X 293T cells (LX293T, Clontech) were maintained in DMEM containing 10% FBS and 1% penicillin/streptomycin (Invitrogen). […] Two days before assay, cells were split at a density of 20,000 cells/well in a 96-well tissue culture plate coated with poly-d lysine (Thermo Scientific). The next day, the cells were transiently transfected with 0.1 μg of DNA per well using standard Fugene protocol (Promega). On the day of assay, cells were washed 2 times in 1× extracellular solution (1×ECS: 140 mM NaCl, 5 mM KCl, 1 mM MgCl2, 2 mM CaCl2), 10 mM HEPES, 10 mM glucose, pH 7.2, mOsms 300). After the last wash, 100 μL of 1×ECS was added to the wells and the plate was incubated at 37° C. for 30 min. While incubating the plate, the drugs were diluted to a 2× concentration in 1×ECS-NaI (same components as 1×ECS except the 140 mM NaCl was replaced by 140 mM NaI). The plates were then read on a Flexstation3 (Molecular Devices). Each well, 8 wells at a time, of the plate is read for 2 min using a Flexstation3 (Molecular Devices) as follows: 1) a baseline YFP fluorescence is read for 17 sec, 2) 100 μL of ligand is added, and 3) the changes in YFP fluorescence are then measured every 1.3 sec for 1 minute and 43 seconds. The percent quench is calculated from the average fluorescence of the last 10 seconds of the read divided by the baseline average of the first 15 seconds prior to the ligand addition.
# FIGS. 1A-1J provide heat maps of the percent quench of YFP fluorescence following stimulation by various doses of either acetylcholine or the non-native ligand as indicated in the Figures. CODA71 (SEQ ID NO: 33) was used as a control, and CODA75 (SEQ ID NO: 29, a non-responding chimeric engineered receptor) was used as the negative control. Quenching of the fluorescence signal, as indicated by blue shaded cells, indicate the level of engineered receptor activation by the non-native ligand at that concentration.
molecule,measurement,setting,value
"CODA236: engineered chimeric LGIC receptor, R101F in SEQ ID NO: 33 (protein, synthetic sequence of chimeric LGIC) MRCSPGGVWLALAASLLHVSLQGEFQRKLYKELVKNYNPLERPVANDSQPLTVYFSLSLLQIMDVDEKNQVLTTNIWLQMSWTDHYLQWNVSEYPGVKTVFFPDGQIWKPDILLYNSADERFDATFHTNVLVNSSGHCQYLPPGIFKSSCPMDLKNFPMDVQTCKLKFGSWSYGGWSLDLQMQEADISGYIPNGEWDLVGIPGKRSERFYECCKEPYPDVTFTVTMRRRMGYYLIQMYIPSLLIVILSWISFWINMDAAPARVGLGITTVLTMTTQSSGSRASLPKVSYVKAIDIWMAVCLLFVFSALLEYAAVNFVSRQHKELLRFRRKRRHHKSPMLNLFQEDEAGEGRFNFSAYGMGPACLQAKDGISVKGANNSNTTNPPPAPSKSPEEMRKLFIQRAKKIDKISRIGFPMAFLIFNMFYWIIYKIVRREDVHNQ",YFP fluorescence quenching using CNL001,"1 nM CNL001, first column",9.048%
same,YFP fluorescence quenching using CNL001,"1 nM CNL001, second column",26.601%
same,YFP fluorescence quenching using TC-5619/Bradanicline,3 nM brd,49.33%
same,YFP fluorescence quenching using Varenicline,"3 nM var, first column",19.949
same,YFP fluorescence quenching using Varenicline,"3 nM var, second column",22.334
same,YFP fluorescence quenching using CNL001,"10 nM CNL001, first column",71.533%
same,YFP fluorescence quenching using CNL001,"10 nM CNL001, second column",72.948%
same,YFP fluorescence quenching using TC-5619/Bradanicline,30 nM brd,77.38%
same,YFP fluorescence quenching using Facinicline,30 nM fac,−28.54
same,YFP fluorescence quenching using Varenicline,"30 nM var, first column",15.764
same,YFP fluorescence quenching using Varenicline,"30 nM var, second column",16.213
same,YFP fluorescence quenching using CNL001,"50 nM CNL001, first column",75.895%
same,YFP fluorescence quenching using CNL001,"50 nM CNL001, second column",74.238%
same,YFP fluorescence quenching using ABT-126,50 nM abt,−18.69%
same,YFP fluorescence quenching using CNL001,"100 nM CNL001, first column",76%
same,YFP fluorescence quenching using CNL001,"100 nM CNL001, second column",75.861%
same,YFP fluorescence quenching using CNL002,100 nM CNL002,−9.56%
same,YFP fluorescence quenching using ABT-126,100 nM abt,−23.01%
same,YFP fluorescence quenching using AZD-0328,100 nM azd0328,−9.78%
same,YFP fluorescence quenching using ABT-126,300 nM abt,−20.92%
same,YFP fluorescence quenching using AZD-0328,300 nM azd0328,49.64%
same,YFP fluorescence quenching using TC-5619/Bradanicline,300 nM brd,77.51%
same,YFP fluorescence quenching using Facinicline,300 nM fac,72.98
same,YFP fluorescence quenching using Varenicline,"300 nM var, first column",23.135
same,YFP fluorescence quenching using Varenicline,"300 nM var, second column",22.987
same,YFP fluorescence quenching using Varenicline,"500 nM var, first column",35.048
same,YFP fluorescence quenching using Varenicline,"500 nM var, second column",34.188
same,YFP fluorescence quenching using CNL001,"1 uM CNL001, first column",76.367%
same,YFP fluorescence quenching using CNL001,"1 uM CNL001, second column",76.162%
same,YFP fluorescence quenching using CNL002,1 uM CNL002,56.9%
same,YFP fluorescence quenching using ABT-126,1 uM abt,4.99%
same,YFP fluorescence quenching using TC-6987,1 uM tc6987,45.34
same,YFP fluorescence quenching using Varenicline,"1 uM var, first column",71.031
same,YFP fluorescence quenching using Varenicline,"1 uM var, second column",71.005
same,YFP fluorescence quenching using TC-6987,10 uM tc6987,70.04
same,YFP fluorescence quenching using CNL002,30 uM CNL002,70.28%
same,YFP fluorescence quenching using AZD-0328,30 uM azd0328,81.14%
same,YFP fluorescence quenching using Facinicline,30 uM fac,87.6
same,YFP fluorescence quenching using TC-6987,500 uM tc6987,75.86
same,"percent quench of YFP fluorescence, 10 uM ach",,−18.24%
same,"percent quench of YFP fluorescence, 100 uM ach",,60%
same,"percent quench of YFP fluorescence, 1 mM ach",,66.07%
same,"percent quench of YFP fluorescence, 3 mM ach",,71.38%
"CODA237: engineered chimeric LGIC receptor, R101M in SEQ ID NO: 33 (protein, synthetic sequence of chimeric LGIC) MRCSPGGVWLALAASLLHVSLQGEFQRKLYKELVKNYNPLERPVANDSQPLTVYFSLSLLQIMDVDEKNQVLTTNIWLQMSWTDHYLQWNVSEYPGVKTVMFPDGQIWKPDILLYNSADERFDATFHTNVLVNSSGHCQYLPPGIFKSSCPMDLKNFPMDVQTCKLKFGSWSYGGWSLDLQMQEADISGYIPNGEWDLVGIPGKRSERFYECCKEPYPDVTFTVTMRRRMGYYLIQMYIPSLLIVILSWISFWINMDAAPARVGLGITTVLTMTTQSSGSRASLPKVSYVKAIDIWMAVCLLFVFSALLEYAAVNFVSRQHKELLRFRRKRRHHKSPMLNLFQEDEAGEGRFNFSAYGMGPACLQAKDGISVKGANNSNTTNPPPAPSKSPEEMRKLFIQRAKKIDKISRIGFPMAFLIFNMFYWIIYKIVRREDVHNQ",YFP fluorescence quenching using CNL001,"1 nM CNL001, first column",−2.114%
same,YFP fluorescence quenching using CNL001,"1 nM CNL001, second column",−5.079%
same,YFP fluorescence quenching using TC-5619/Bradanicline,3 nM brd,−14.87%
same,YFP fluorescence quenching using Varenicline,"3 nM var, first column",18.429
same,YFP fluorescence quenching using Varenicline,"3 nM var, second column",16.83
same,YFP fluorescence quenching using CNL001,"10 nM CNL001, first column",15.096%
same,YFP fluorescence quenching using CNL001,"10 nM CNL001, second column",50.554%
same,YFP fluorescence quenching using TC-5619/Bradanicline,30 nM brd,69.93%
same,YFP fluorescence quenching using Facinicline,30 nM fac,−24.14
same,YFP fluorescence quenching using Varenicline,"30 nM var, first column",23.07
same,YFP fluorescence quenching using Varenicline,"30 nM var, second column",15.868
same,YFP fluorescence quenching using CNL001,"50 nM CNL001, first column",66.585%
same,YFP fluorescence quenching using CNL001,"50 nM CNL001, second column",74.462%
same,YFP fluorescence quenching using ABT-126,50 nM abt,−24.34%
same,YFP fluorescence quenching using CNL001,"100 nM CNL001, first column",78%
same,YFP fluorescence quenching using CNL001,"100 nM CNL001, second column",77.411%
same,YFP fluorescence quenching using CNL002,100 nM CNL002,−8.68%
same,YFP fluorescence quenching using ABT-126,100 nM abt,−20.22%
same,YFP fluorescence quenching using AZD-0328,100 nM azd0328,−17.84%
same,YFP fluorescence quenching using ABT-126,300 nM abt,−20.57%
same,YFP fluorescence quenching using AZD-0328,300 nM azd0328,−11.98%
same,YFP fluorescence quenching using TC-5619/Bradanicline,300 nM brd,76.57%
same,YFP fluorescence quenching using Facinicline,300 nM fac,−14.38
same,YFP fluorescence quenching using Varenicline,"300 nM var, first column",18.819
same,YFP fluorescence quenching using Varenicline,"300 nM var, second column",19.155
same,YFP fluorescence quenching using Varenicline,"500 nM var, first column",19.117
same,YFP fluorescence quenching using Varenicline,"500 nM var, second column",22.593
same,YFP fluorescence quenching using CNL001,"1 uM CNL001, first column",79.06%
same,YFP fluorescence quenching using CNL001,"1 uM CNL001, second column",79.162%
same,YFP fluorescence quenching using CNL002,1 uM CNL002,−2.24%
same,YFP fluorescence quenching using ABT-126,1 uM abt,−19.55%
same,YFP fluorescence quenching using TC-6987,1 uM tc6987,−21.62
same,YFP fluorescence quenching using Varenicline,"1 uM var, first column",24.525
same,YFP fluorescence quenching using Varenicline,"1 uM var, second column",23.383
same,YFP fluorescence quenching using TC-6987,10 uM tc6987,21.52
same,YFP fluorescence quenching using CNL002,30 uM CNL002,66.99%
same,YFP fluorescence quenching using AZD-0328,30 uM azd0328,81.2%
same,YFP fluorescence quenching using Facinicline,30 uM fac,88.78
same,YFP fluorescence quenching using TC-6987,500 uM tc6987,60.33
same,"percent quench of YFP fluorescence, 10 uM ach",,−16.79%
same,"percent quench of YFP fluorescence, 100 uM ach",,−18.63%
same,"percent quench of YFP fluorescence, 1 mM ach",,46.28%
same,"percent quench of YFP fluorescence, 3 mM ach",,69.31%
